Measurements published in US10752921B2, “Enzymes and methods for styrene synthesis” (Phytogene, Inc., priority 2012, dated 2020).

B1: K190C (protein, listed as Saccharomyces cerevisiae)
chain: MRKLNPALEFRDFIQVLKDEDDLIEITEEIDPNLEVGAIMRKAYESHLPAPLFKNLKGASKDLFSILGCPAGLRSKEKGDHGRIAHHLGLDPKTTIKEIIDYLLECKEKEPLPPITVPVSSAPCKTHILSEEKIHLQSLPTPYLHVSDGGKYLQTYGMWILQTPDKKWTNWSIARGMVVDDKHITGLVICPQHIRQIADSWAAIGKANEIPFALCFGVPPAAILVSSMPIPEGVSESDYVGAILGESVPVVKCETNDLMVPATSEMVFEGTLSLTDTHLEGPFGEMHGYVFKSQGHPCPLYTVKAMSYRDNAILPVSNPGLCTDETHTLIGSLVATEAKELAIESGLPILDAFMPYEAQALWLILKVDLKGLQALKTTPEEFCKKVGDIYFRTKVGFIVHEIILVADDIDIFNFKEVIWAYVTRHTPVADQMAFDDVTSFPLAPFVSQSSRSKTMKGGKCVTNCIFRQQYERSFDYITCNFEKGYPKGLVDKVNENWKRYGYK
B2: K190L (protein, listed as Saccharomyces cerevisiae)
chain: MRKLNPALEFRDFIQVLKDEDDLIEITEEIDPNLEVGAIMRKAYESHLPAPLFKNLKGASKDLFSILGCPAGLRSKEKGDHGRIAHHLGLDPKTTIKEIIDYLLECKEKEPLPPITVPVSSAPCKTHILSEEKIHLQSLPTPYLHVSDGGKYLQTYGMWILQTPDKKWTNWSIARGMVVDDKHITGLVILPQHIRQIADSWAAIGKANEIPFALCFGVPPAAILVSSMPIPEGVSESDYVGAILGESVPVVKCETNDLMVPATSEMVFEGTLSLTDTHLEGPFGEMHGYVFKSQGHPCPLYTVKAMSYRDNAILPVSNPGLCTDETHTLIGSLVATEAKELAIESGLPILDAFMPYEAQALWLILKVDLKGLQALKTTPEEFCKKVGDIYFRTKVGFIVHEIILVADDIDIFNFKEVIWAYVTRHTPVADQMAFDDVTSFPLAPFVSQSSRSKTMKGGKCVTNCIFRQQYERSFDYITCNFEKGYPKGLVDKVNENWKRYGYK
B3: K190H (protein, listed as Saccharomyces cerevisiae)
chain: MRKLNPALEFRDFIQVLKDEDDLIEITEEIDPNLEVGAIMRKAYESHLPAPLFKNLKGASKDLFSILGCPAGLRSKEKGDHGRIAHHLGLDPKTTIKEIIDYLLECKEKEPLPPITVPVSSAPCKTHILSEEKIHLQSLPTPYLHVSDGGKYLQTYGMWILQTPDKKWTNWSIARGMVVDDKHITGLVIHPQHIRQIADSWAAIGKANEIPFALCFGVPPAAILVSSMPIPEGVSESDYVGAILGESVPVVKCETNDLMVPATSEMVFEGTLSLTDTHLEGPFGEMHGYVFKSQGHPCPLYTVKAMSYRDNAILPVSNPGLCTDETHTLIGSLVATEAKELAIESGLPILDAFMPYEAQALWLILKVDLKGLQALKTTPEEFCKKVGDIYFRTKVGFIVHEIILVADDIDIFNFKEVIWAYVTRHTPVADQMAFDDVTSFPLAPFVSQSSRSKTMKGGKCVTNCIFRQQYERSFDYITCNFEKGYPKGLVDKVNENWKRYGYK
B4: K190D (protein, listed as Saccharomyces cerevisiae)
chain: MRKLNPALEFRDFIQVLKDEDDLIEITEEIDPNLEVGAIMRKAYESHLPAPLFKNLKGASKDLFSILGCPAGLRSKEKGDHGRIAHHLGLDPKTTIKEIIDYLLECKEKEPLPPITVPVSSAPCKTHILSEEKIHLQSLPTPYLHVSDGGKYLQTYGMWILQTPDKKWTNWSIARGMVVDDKHITGLVIDPQHIRQIADSWAAIGKANEIPFALCFGVPPAAILVSSMPIPEGVSESDYVGAILGESVPVVKCETNDLMVPATSEMVFEGTLSLTDTHLEGPFGEMHGYVFKSQGHPCPLYTVKAMSYRDNAILPVSNPGLCTDETHTLIGSLVATEAKELAIESGLPILDAFMPYEAQALWLILKVDLKGLQALKTTPEEFCKKVGDIYFRTKVGFIVHEIILVADDIDIFNFKEVIWAYVTRHTPVADQMAFDDVTSFPLAPFVSQSSRSKTMKGGKCVTNCIFRQQYERSFDYITCNFEKGYPKGLVDKVNENWKRYGYK
B5: K190N (protein, listed as Saccharomyces cerevisiae)
chain: MRKLNPALEFRDFIQVLKDEDDLIEITEEIDPNLEVGAIMRKAYESHLPAPLFKNLKGASKDLFSILGCPAGLRSKEKGDHGRIAHHLGLDPKTTIKEIIDYLLECKEKEPLPPITVPVSSAPCKTHILSEEKIHLQSLPTPYLHVSDGGKYLQTYGMWILQTPDKKWTNWSIARGMVVDDKHITGLVINPQHIRQIADSWAAIGKANEIPFALCFGVPPAAILVSSMPIPEGVSESDYVGAILGESVPVVKCETNDLMVPATSEMVFEGTLSLTDTHLEGPFGEMHGYVFKSQGHPCPLYTVKAMSYRDNAILPVSNPGLCTDETHTLIGSLVATEAKELAIESGLPILDAFMPYEAQALWLILKVDLKGLQALKTTPEEFCKKVGDIYFRTKVGFIVHEIILVADDIDIFNFKEVIWAYVTRHTPVADQMAFDDVTSFPLAPFVSQSSRSKTMKGGKCVTNCIFRQQYERSFDYITCNFEKGYPKGLVDKVNENWKRYGYK
B6: R1751 (protein, listed as Saccharomyces cerevisiae)
chain: MRKLNPALEFRDFIQVLKDEDDLIEITEEIDPNLEVGAIMRKAYESHLPAPLFKNLKGASKDLFSILGCPAGLRSKEKGDHGRIAHHLGLDPKTTIKEIIDYLLECKEKEPLPPITVPVSSAPCKTHILSEEKIHLQSLPTPYLHVSDGGKYLQTYGMWILQTPDKKWTNWSIAIGMVVDDKHITGLVIKPQHIRQIADSWAAIGKANEIPFALCFGVPPAAILVSSMPIPEGVSESDYVGAILGESVPVVKCETNDLMVPATSEMVFEGTLSLTDTHLEGPFGEMHGYVFKSQGHPCPLYTVKAMSYRDNAILPVSNPGLCTDETHTLIGSLVATEAKELAIESGLPILDAFMPYEAQALWLILKVDLKGLQALKTTPEEFCKKVGDIYFRTKVGFIVHEIILVADDIDIFNFKEVIWAYVTRHTPVADQMAFDDVTSFPLAPFVSQSSRSKTMKGGKCVTNCIFRQQYERSFDYITCNFEKGYPKGLVDKVNENWKRYGYK
B7: K190V (protein, listed as Saccharomyces cerevisiae)
chain: MRKLNPALEFRDFIQVLKDEDDLIEITEEIDPNLEVGAIMRKAYESHLPAPLFKNLKGASKDLFSILGCPAGLRSKEKGDHGRIAHHLGLDPKTTIKEIIDYLLECKEKEPLPPITVPVSSAPCKTHILSEEKIHLQSLPTPYLHVSDGGKYLQTYGMWILQTPDKKWTNWSIARGMVVDDKHITGLVIVPQHIRQIADSWAAIGKANEIPFALCFGVPPAAILVSSMPIPEGVSESDYVGAILGESVPVVKCETNDLMVPATSEMVFEGTLSLTDTHLEGPFGEMHGYVFKSQGHPCPLYTVKAMSYRDNAILPVSNPGLCTDETHTLIGSLVATEAKELAIESGLPILDAFMPYEAQALWLILKVDLKGLQALKTTPEEFCKKVGDIYFRTKVGFIVHEIILVADDIDIFNFKEVIWAYVTRHTPVADQMAFDDVTSFPLAPFVSQSSRSKTMKGGKCVTNCIFRQQYERSFDYITCNFEKGYPKGLVDKVNENWKRYGYK

system: styrene production; assay: Styrene production by FDC1 mutants from tCA (colorimetric screening, confirmed by HPLC); type: cell-based; conditions: E. coli cells, tCA 1 g/L, 30° C. for 4 hours
Experimental: Saturation mutagenesis allows the change of one amino acid to 19 other alternative amino acid residues. […] The codon NNK has 32-fold degeneracy and encodes all 20 amino acids without rare codons. The QuikChange PCR products were examined by agarose gel electrophoresis and then 15 μl of PCR products were digested with 1 μl Dpnl (New England Biolabs) at 37° C. for 4 hours to remove the template plasmid. Aliquots of (2 μl) digestive products were transformed into BL21-Gold (DE3) competent cells (STRATAgene, CA) and inoculated on Luria-Bertani (LB) agar plates containing kanamycin. The quality of the library by DNA sequencing was confirmed. The library covers 90% of mutagenesis (17 mutants out of 19). To cover 100% (19 out of 19 mutant), we screened 150 mutants for each site.
The transformants (Example II.2) were inoculated in 96-well plates (NUNC, Roskilde, Denmark) containing 100 μl LB broth per well and incubated at 37° C., overnight. The cultures were then mixed with equal amount of 50% glycerol and stored at −80° C. as the master plate. An aliquot of 10 μl culture was inoculated in 2 ml deep-well plates (USA scientific) with 1 ml TB broth per well and incubated at 37° C. until the OD600 reached 1.0. The cultures were then induced by 0.2 mM IPTG and incubated at 18° C. for 20 hours with shaking at 250 rpm.
Cells were harvested and suspended with 0.25 ml PBS buffer at pH 7.0 and the substrate (tCA) was added at a final concentration of 1 g/L. The culture was incubated at 30° C. for 4 hours and the volatile product styrene was collected by using 96 well STRATA-X® reversed phase plate containing 10 mg polymer based resin (Phenomenex) on top of the culture plate (FIG. 19). To avoid styrene vapor diffusion, 96-square well silicone sealing mats with pre-slit were used between 96-well culture plate and 96 well STRATA-X® reversed phase plate. The product was collected by 200 μl propanol for each well and the amount of product was measured by colorimetric method.
Various chemicals were tested as an indicator for styrene detection, including NBP (4-nitrobenzyl-pyridine) as a preferred indicator. Styrene was mixed with cytochrome P450 BM-3 in 50 mM phosphate buffer pH 8.0. The styrene oxidation reaction was started by adding 0.2 mM NADPH, and the reaction mixture was incubated at room temperature for 5 minutes with shaking. The NBP solution was added to the mixture and incubated at room temperature for further 5 minutes with shaking which gives white precipitate. The tube or plate containing reaction mixtures were heated at 70° C. for 30 minutes and chilled on ice for 5 minutes. After adding Dimethylformamide (150 μl) and 25 μl of 1M K2CO3, the reaction mixture gave blue color that can be measured spectrophotometrically at 600 nm immediately. The […] of NBP reacts with the oxirane ring of styrene oxide to yield a blue chromophore a blue color that can be monitored spectrophotometrically at 600 nm.
The mutants showing higher activity were confirmed by HPLC using an ACQUITY UPLC BEH C18 column (1.7-μm, 2.1×50-mm, Waters, USA). The samples were resolved in 30% acetonitrile (A) with an increasing concentration gradient of acetonitrile (B) for 1 min, 95%; then to 1 min, 30%; at a flow rate of 1 ml/min. UV absorption was monitored at 254-, 280-, and 310-nm. The changed amino acid residues in the mutants showing the higher activity were confirmed by DNA sequence.

Q: How did the “amount of styrene compared to that of wild type (in words)” value turn out when B1 was run?
A: significantly higher amount of styrene

Q: What about the “styrene produced compared to wild type” value of the same molecule?
A: 3 times

Q: B2 was tested. Which “amount of styrene compared to that of wild type (in words)” value did it give?
A: significantly higher amount of styrene

Q: For B3, which “amount of styrene compared to that of wild type (in words)” value is on record?
A: significantly higher amount of styrene

Q: With B4 as the molecule, how does the “amount of styrene compared to that of wild type (in words)” value read?
A: significantly higher amount of styrene

Q: Which “amount of styrene compared to that of wild type (in words)” value does the source give for B5 here?
A: significantly higher amount of styrene

Q: How did the “amount of styrene compared to that of wild type (in words)” value turn out when B6 was run?
A: significantly higher amount of styrene

Q: What about the “styrene produced compared to wild type” value of the same molecule?
A: 1.5 times

Q: What does the source list for B7?
A: amount of styrene compared to that of wild type (in words): significantly higher amount of styrene; styrene produced compared to wild type: 3 times
